Common to all, as to assay: multiplexed single-antigen bead assay (Luminex); 5 µg PE-conjugated KIR tetramers, 30 min at room temperature, with LABScreen HLA Class I Single Antigen beads; MFI normalised to the highest value of each experiment
Experiment [1] deals with bead-bound HLA-C*17:01 presenting a broad repertoire of peptides (human).
In experiment [2] the target is bead-bound HLA-C*15:02 presenting a broad repertoire of peptides (human).
Experiment [3] has as its target bead-bound HLA-C*14:02 presenting a broad repertoire of peptides (human).

Chain of soluble tetrameric form of KIR2DL2 (PE-conjugated KIR tetramer) (P43627 22-245): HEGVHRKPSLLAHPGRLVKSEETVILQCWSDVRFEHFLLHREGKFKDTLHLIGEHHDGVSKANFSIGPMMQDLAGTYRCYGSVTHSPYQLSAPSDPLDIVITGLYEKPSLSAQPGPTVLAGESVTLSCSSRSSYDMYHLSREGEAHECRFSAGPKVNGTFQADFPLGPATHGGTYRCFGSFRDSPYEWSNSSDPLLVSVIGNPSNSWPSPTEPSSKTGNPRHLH
Chain of soluble tetrameric form of KIR2DL3 (PE-conjugated KIR tetramer) (P43628 22-245): as the sequence (P43627 22-245) above, with R16P, E35Q, C148R, I200T, K216E counted along it

Take “soluble tetrameric form of KIR2DL2 (PE-conjugated KIR tetramer) (from UniProt P43627 22-245) (receptor)”: the percent of the top avidity in experiment [1] and in experiment [2] was 55% each time. In addition, the percent of the avidity of the top binding allomorph in experiment [3] worked out at 14.7%.
In the case of “soluble tetrameric form of KIR2DL3 (PE-conjugated KIR tetramer) (from UniProt P43628 22-245) (receptor)”, the percent of the maximum avidity in experiment [3] came to 43%.

Source of the values: paper PMC8041999.
